In publication PMC6992733, “Analysis of the polycystin complex (PCC) in human urinary exosome–like vesicles (ELVs)” (Scientific Reports, 2020):
Several values for one entry are separate records, joined by “and”; a condition that tells them apart may be missing. Identical values can stand only once.

Assays:
[1] = target: the molecule itself; experiment: native gel or EMSA; purified urinary ELVs with 0.2-0.8% SDS, non reducing, incubated on ice 20 min without heating; native gel; western blot
[2] = target: the molecule itself; experiment: SDS-PAGE and western blot; human RCTE cells, PC2 bands on SDS-PAGE western blot read as monomer, dimer and tetramer (Supplemental Fig. 2)

Protein	stoichiometry N [1]	stoichiometry N [2]
polycystin-2 (PC2) of urinary ELVs (natural protein, human (endogenous in urinary ELVs), UniProt Q13563 1-968, looked up, mature post-Golgi N-linked glycosylation (PNGase F sensitive, Endo H resistant), polycystin-2, human, product of PKD2, printed length 968 aa; about 10-13% is cleaved in the C-terminal tail N-terminal to the coiled-coil domain (833..872 aa); also called ELV PC2; source: endogenous, human urinary exosome-like vesicles (ELVs), detergent-solubilised) MVNSSRVQPQQPGDAKRPPAPRAPDPGRLMAGCAAVGASLAAPGGLCEQRGLEIEMQRIRQAAARDPPAGAAASPSPPLSSCSRQAWSRDNPGFEAEEEEEEVEGEEGGMVVEMDVEWRPGSRRSAASSAVSSVGARSRGLGGYHGAGHPSGRRRRREDQGPPCPSPVGGGDPLHRHLPLEGQPPRVAWAERLVRGLRGLWGTRLMEESSTNREKYLKSVLRELVTYLLFLIVLCILTYGMMSSNVYYYTRMMSQLFLDTPVSKTEKTNFKTLSSMEDFWKFTEGSLLDGLYWKMQPSNQTEADNRSFIFYENLLLGVPRIRQLRVRNGSCSIPQDLRDEIKECYDVYSVSSEDRAPFGPRNGTAWIYTSEKDLNGSSHWGIIATYSGAGYYLDLSRTREETAAQVASLKKNVWLDRGTRATFIDFSVYNANINLFCVVRLLVEFPATGGVIPSWQFQPLKLIRYVTTFDFFLAACEIIFCFFIFYYVVEEILEIRIHKLHYFRSFWNCLDVVIVVLSVVAIGINIYRTSNVEVLLQFLEDQNTFPNFEHLAYWQIQFNNIAAVTVFFVWIKLFKFINFNRTMSQLSTTMSRCAKDLFGFAIMFFIIFLAYAQLAYLVFGTQVDDFSTFQECIFTQFRIILGDINFAEIEEANRVLGPIYFTTFVFFMFFILLNMFLAIINDTYSEVKSDLAQQKAEMELSDLIRKGYHKALVKLKLKKNTVDDISESLRQGGGKLNFDELRQDLKGKGHTDAEIEAIFTKYDQDGDQELTEHEHQQMRDDLEKEREDLDLDHSSLPRPMSSRSFPRSLDDSEEDDDEDSGHSSRRRGSISSGVSYEEFQVLVRRVDRMEHSIGSIVSKIDAVIVKLEIMERAKLKRREVLGRLLDGVAEDERLGRDSEIHREQMERLVREELERWESDDAASQISHGLGTPVGLNGQPRPRSSRPSSSQSTEGMEGAGGNGSSNVHV	2	
polycystin-2 (PC2) of human renal cortical tubular epithelial (RCTE) cells (natural protein, human (endogenous in RCTE cells), UniProt Q13563 1-968, looked up, polycystin-2, human, product of PKD2, printed length 968 aa; also called PC2 from cells; source: endogenous, human RCTE cells) MVNSSRVQPQQPGDAKRPPAPRAPDPGRLMAGCAAVGASLAAPGGLCEQRGLEIEMQRIRQAAARDPPAGAAASPSPPLSSCSRQAWSRDNPGFEAEEEEEEVEGEEGGMVVEMDVEWRPGSRRSAASSAVSSVGARSRGLGGYHGAGHPSGRRRRREDQGPPCPSPVGGGDPLHRHLPLEGQPPRVAWAERLVRGLRGLWGTRLMEESSTNREKYLKSVLRELVTYLLFLIVLCILTYGMMSSNVYYYTRMMSQLFLDTPVSKTEKTNFKTLSSMEDFWKFTEGSLLDGLYWKMQPSNQTEADNRSFIFYENLLLGVPRIRQLRVRNGSCSIPQDLRDEIKECYDVYSVSSEDRAPFGPRNGTAWIYTSEKDLNGSSHWGIIATYSGAGYYLDLSRTREETAAQVASLKKNVWLDRGTRATFIDFSVYNANINLFCVVRLLVEFPATGGVIPSWQFQPLKLIRYVTTFDFFLAACEIIFCFFIFYYVVEEILEIRIHKLHYFRSFWNCLDVVIVVLSVVAIGINIYRTSNVEVLLQFLEDQNTFPNFEHLAYWQIQFNNIAAVTVFFVWIKLFKFINFNRTMSQLSTTMSRCAKDLFGFAIMFFIIFLAYAQLAYLVFGTQVDDFSTFQECIFTQFRIILGDINFAEIEEANRVLGPIYFTTFVFFMFFILLNMFLAIINDTYSEVKSDLAQQKAEMELSDLIRKGYHKALVKLKLKKNTVDDISESLRQGGGKLNFDELRQDLKGKGHTDAEIEAIFTKYDQDGDQELTEHEHQQMRDDLEKEREDLDLDHSSLPRPMSSRSFPRSLDDSEEDDDEDSGHSSRRRGSISSGVSYEEFQVLVRRVDRMEHSIGSIVSKIDAVIVKLEIMERAKLKRREVLGRLLDGVAEDERLGRDSEIHREQMERLVREELERWESDDAASQISHGLGTPVGLNGQPRPRSSRPSSSQSTEGMEGAGGNGSSNVHV		2 and 4
